B1: OA-5D5 (antibody, part only; not given: constant regions and Fc knob chain, V domains shown, not shown: another chain or arm of the molecule; a dimerising Fc or GST)
VH: EVQLVESGGGLVQPGGSLRLSCAASGYTFTSYWLHWVRQAPGKGLEWVGMIDPSNSDTRFNPNFKDRFTISADTSKNTAYLQMNSLRAEDTAVYYCATYRSYVTPLDYWGQGTLVTVSS
VL: DIQMTQSPSSLSASVGDRVTITCKSSQSLLYTSSQKNYLAWYQQKPGKAPKLLIYWASTRESGVPSRFSGSGSGTDFTLTISSLQPEDFATYYCQQYYAYPWTFGQGTKVEIK
B2: Ab#5 (bispecific antibody, human IgG1, kappa)
heavy: QLQLQESGPGLVKPSETLSLTCTVSGGSISSSVYYWSWIRQPPGKGLEWIGVIYPSGNTYYSPSLKSRVTISVDTSKNQFSLKLSSVTAADTAVYYCARTIYDLFDIWGQGTMVTVSSASTKGPSVFPLAPSSKSTSGGTAALGCLVKDYFPEPVTVSWNSGALTSGVHTFPAVLQSSGLYSLSSVVTVPSSSLGTQTYICNVNHKPSNTKVDKKVEPKSCDKTHTCPSCPAPEFLGGPSVFLFPPKPKDTLMISRTPEVTCVVVDVSQEDPEVQFNWYVDGVEVHNAKTKPREEQFNSKYRVVSVLTVLHQDWLNGKEYKCKVSNKGLPSSIEKTISKAKGQPREPQVYTLPPSREEMTKNQVSLSCAVKGFYPSDIAVEWESNGQPENNYKTTPPVLDSDGSFFLVSKLTVDKSRWQQGNVFSCSVMHEALHNHYTQKSLSLSKSCDKTGGGGSGGGGSGGGGSGGGGSGGGGSGGGGSGGGGSGGGGSCPSCPAPEFLGGPSVFLFPPKPKDTLMISRTPEVTCVVVDVSQEDPEVQFNWYVDGVEVHNAKTKPREEQFNSDYRVVSVLTVLHQDWLNGKEYKCKVSNKGLPSSIEKTISKAKGQPREPQVYTLPPSREEMTKNQVSLWCLVKGFYPSDIAVEWESNGQPENNYKTTPPVLDSDGSFFLYSKLTVDKSRWQQGNVFSCSVMHEALHNHYTQKSLSLSGECGGGGSGGGGSDIVMTQSPLSLPVTPGEPASISCRSTKSLLHSNGITYLYWYLQKPGQSPQLLIYQMSNLASGVPDRFSSSGSGTDFTLKISRVEAEDEGVYYCAQNLEIPRTFGGGTKLEIKRTGGGGSGGGGSGGGGSGGGGSQVQLVQSGAEVKKPGESVKISCKASGYTFTNYGMNWVRQAPGQGLKWMGWINTYTGESTYADDFKGRFAFSLDTSASTAYLQLSSLRSEDTAVYFCARFAIKGDYWGQGTLVTVSS
light: DIQMTQSPSSVSASVGDRVTITCRASQGISSWLAWYQQKPGKAPKLLIYAASSLQSGVPSRFSGSGSGTDFTLTISSLQPEDFATYYCLQANSFPPTFGGGTKVEIKRTVAAPSVFIFPPSDEQLKSGTASVVCLLNNFYPREAKVQWKVDNALQSGNSQESVTEQDSKDSTYSLSSTLTLSKADYEKHKVYACEVTHQGLSSPVTKSFNRGEC

Columns and labels:
c-Met (human) = c-Met (human) (UniProt P08581); test: cell-based or functional assay
Sequence of c-Met (human) (P08581 25-1390): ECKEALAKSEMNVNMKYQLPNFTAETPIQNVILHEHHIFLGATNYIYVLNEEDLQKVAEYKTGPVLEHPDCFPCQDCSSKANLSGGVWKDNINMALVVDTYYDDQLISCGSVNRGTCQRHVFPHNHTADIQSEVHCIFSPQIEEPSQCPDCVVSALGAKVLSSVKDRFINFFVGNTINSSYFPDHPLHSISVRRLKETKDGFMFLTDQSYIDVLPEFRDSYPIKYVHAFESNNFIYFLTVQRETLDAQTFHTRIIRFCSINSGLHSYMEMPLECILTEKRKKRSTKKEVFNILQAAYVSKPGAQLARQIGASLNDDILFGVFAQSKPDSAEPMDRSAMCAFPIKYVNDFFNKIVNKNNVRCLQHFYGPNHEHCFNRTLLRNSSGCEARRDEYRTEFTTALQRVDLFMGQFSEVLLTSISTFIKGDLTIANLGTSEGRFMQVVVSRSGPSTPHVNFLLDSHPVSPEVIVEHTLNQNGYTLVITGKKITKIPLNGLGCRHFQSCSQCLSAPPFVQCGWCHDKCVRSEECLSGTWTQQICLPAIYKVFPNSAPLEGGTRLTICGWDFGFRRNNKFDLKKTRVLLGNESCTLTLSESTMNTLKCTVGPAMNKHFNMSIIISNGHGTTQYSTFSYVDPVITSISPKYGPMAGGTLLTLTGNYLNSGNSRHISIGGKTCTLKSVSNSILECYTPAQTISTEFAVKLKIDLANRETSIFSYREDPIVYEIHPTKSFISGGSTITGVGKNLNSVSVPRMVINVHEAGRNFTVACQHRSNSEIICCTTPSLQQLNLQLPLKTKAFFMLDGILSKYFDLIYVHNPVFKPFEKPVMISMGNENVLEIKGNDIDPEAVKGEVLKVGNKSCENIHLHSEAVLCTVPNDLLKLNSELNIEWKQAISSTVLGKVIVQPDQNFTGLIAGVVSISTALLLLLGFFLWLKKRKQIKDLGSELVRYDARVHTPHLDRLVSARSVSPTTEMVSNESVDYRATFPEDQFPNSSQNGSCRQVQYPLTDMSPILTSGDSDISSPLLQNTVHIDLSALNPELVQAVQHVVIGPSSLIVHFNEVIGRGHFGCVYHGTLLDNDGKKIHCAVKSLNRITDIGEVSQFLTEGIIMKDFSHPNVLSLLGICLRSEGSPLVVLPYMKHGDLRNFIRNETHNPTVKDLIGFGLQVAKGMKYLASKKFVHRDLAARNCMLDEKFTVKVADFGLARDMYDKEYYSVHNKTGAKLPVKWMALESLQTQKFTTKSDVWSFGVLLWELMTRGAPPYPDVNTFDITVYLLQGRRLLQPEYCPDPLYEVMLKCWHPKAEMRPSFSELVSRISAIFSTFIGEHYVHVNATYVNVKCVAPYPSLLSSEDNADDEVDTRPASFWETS

c-Met (human), P08581 = test: cell-based or functional assay
Sequence of c-Met (human), P08581 (P08581 25-1390): as above

Binder	c-Met degradation (total c-Met ELISA, 24 h), A549 cells (c-Met (human)) [%]	reduction of c-Met expression (total c-Met ELISA, 24 h), NCI-H2170 cells (c-Met (human)) [%]	c-Met degradation (total c-Met ELISA, 24 h), A549 cells (c-Met (human), P08581) [%]	reduction of c-Met expression (total c-Met ELISA, 24 h), NCI-H2170 cells (c-Met (human), P08581) [%]
B1	< 20	30		
B2			< 20	65

Reference: patent publication US20140302035A1
